Assay results as given in publication PMC11014985, “TCTP regulates genotoxic stress and tumorigenicity via intercellular vesicular signaling” (EMBO Reports, 2024).

Columns and labels:
[1] = target: TCTP (translationally controlled tumor protein) (human) (UniProt P13693); experiment: SPR; Biacore 2000; TCTP amine-coupled on CM5 chip (697 RU); DDX3 injected in two-fold dilutions 0.195 to 100 nM, 30 ul/min; HBS-EP (10 mM HEPES pH 7.2, 150 mM NaCl, 3 mM EDTA, 0.005% Tween 20); 25 C; global Langmuir binding with drifting baseline
[2] = target: TCTP (translationally controlled tumor protein) (human) (UniProt P13693); experiment: SPR; positive control for the SPR experiments; who was immobilised and the conditions are not told for TSAP6 (Appendix Fig. S2); also run with sertraline and thioridazine

Chain of TCTP (translationally controlled tumor protein) (human) (P13693 whole entry): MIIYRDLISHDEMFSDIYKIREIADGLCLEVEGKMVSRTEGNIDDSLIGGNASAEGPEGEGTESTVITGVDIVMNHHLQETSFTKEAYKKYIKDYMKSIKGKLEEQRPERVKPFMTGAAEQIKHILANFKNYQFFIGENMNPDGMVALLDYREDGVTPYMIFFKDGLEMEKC

Row | Kd [1] [nM] | Kd [2] [nM] | Substance
1 | 68.9 |  | DDX3 wild-type (from UniProt O00571 1-662)
2 |  | 1000 | TSAP6 (Tumor Suppressor Activated Protein) (from UniProt Q658P3 1-488) (natural protein)
